This sample holds only a part of the variants without activity.
Columns and labels:
biotinyl-Met-oxazolone = assay: self-aminoacylation, catalytic enhancement (BMO) (fold over background); higher = more active; k-Seq, kA / k0A0; sequences stand for … in GGGAAUGGAUCCACAUCUACGAAUUC…UUCACUGCAGACUUGACGAAGCUG
Procedure, shortened: (§1)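 Each biotinyl-aminoacyl-oxazolone, at 2–1250 μM, was incubated with mutagenized RNA pools (0.43 μM) carrying a 21-nt variable region. The 50 μL reactions contained HEPES/NaCl/KCl/MgCl2/CaCl2 buffer with 5% acetonitrile at pH 6.9–7.0 and ran for 90 minutes at room temperature. After streptavidin capture, RNA was measured by qPCR in triplicate and by Illumina sequencing, and catalytic enhancement was calculated as median kA over the uncatalyzed rate from a pseudo-first-order fit of per-sequence fraction reacted.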

biotinyl-Phe-oxazolone = assay: self-aminoacylation, catalytic enhancement (BFO) (fold over background); higher = more active; k-Seq, kA / k0A0; sequences stand for … in GGGAAUGGAUCCACAUCUACGAAUUC…UUCACUGCAGACUUGACGAAGCUG
Procedure, shortened: as §1

biotinyl-Ile-oxazolone = assay: self-aminoacylation, catalytic enhancement (BIO) (fold over background); higher = more active; k-Seq, kA / k0A0; sequences stand for … in GGGAAUGGAUCCACAUCUACGAAUUC…UUCACUGCAGACUUGACGAAGCUG
Procedure, shortened: as §1

biotinyl-Val-oxazolone = assay: self-aminoacylation, catalytic enhancement (BVO) (fold over background); higher = more active; k-Seq, kA / k0A0; sequences stand for … in GGGAAUGGAUCCACAUCUACGAAUUC…UUCACUGCAGACUUGACGAAGCUG
Procedure, shortened: as §1

biotinyl-Leu-oxazolone = assay: self-aminoacylation, catalytic enhancement (BLO) (fold over background); higher = more active; k-Seq, kA / k0A0; sequences stand for … in GGGAAUGGAUCCACAUCUACGAAUUC…UUCACUGCAGACUUGACGAAGCUG
Procedure, shortened: as §1

biotinyl-Trp-oxazolone = assay: self-aminoacylation, catalytic enhancement (BWO) (fold over background); higher = more active; k-Seq, kA / k0A0; sequences stand for … in GGGAAUGGAUCCACAUCUACGAAUUC…UUCACUGCAGACUUGACGAAGCUG
Procedure, shortened: as §1

Sequence | self-aminoacylation (biotinyl-Met-oxazolone) | self-aminoacylation (biotinyl-Phe-oxazolone) | self-aminoacylation (biotinyl-Ile-oxazolone) | self-aminoacylation (biotinyl-Val-oxazolone) | self-aminoacylation (biotinyl-Leu-oxazolone) | self-aminoacylation (biotinyl-Trp-oxazolone)
AUUACCCUGGUAAUCGAGUGG [Fam2.1 aminoacylation ribozyme variant] | 2.85 | 2.83 | 1.38 | 1.31 | 2.79 | 2.9
CUACUUCAAACAUUCGGUAUG [Fam1A.1 aminoacylation ribozyme variant] | 0.993 | 0.64 | 0.968 | 1.12 | 1.05 | 0.924
AAGCUUGCUAAUAGUCGAAAG [Fam3.1 aminoacylation ribozyme variant] | 1.73 | 3.53 | 1.58 | 1.35 | 1.16 | 1.88
AUAACCCUGGUCCUCGAGUGA [Fam2.1 aminoacylation ribozyme variant] | 2.77 | 13.1 | 1.91 | 1.79 | 3.52 | 3.38
CCACAUUUCAAACAAUCGGUC [Fam1B.1 aminoacylation ribozyme variant] | 1.33 | 17.8 | 1.41 | 1.28 | 1.31 | 9.95
UCACACUUCAAGCAAUCCGUC [Fam1B.1 aminoacylation ribozyme variant] | 0.667 | 1.15 | 0.955 | 1.25 | 0.591 | 1.01
UUUACCCUGGUAAUCGAGUGA [Fam2.1 aminoacylation ribozyme variant] | 9.02 | 58.7 | 4.2 | 3.97 | 8.58 | 10.4
CUACUUCGAACAAGCGGUCUG [Fam1A.1 aminoacylation ribozyme variant] | 0.624 | 0.721 | 0.727 | 0.64 | 0.9 | 0.528
AUUCACCUAGGUCAUUGGGAG [Fam2.2 aminoacylation ribozyme variant] | 1.05 | 0.946 | 1.15 | 0.991 | 1.07 | 1.16
AGUACCCUGGUCAUCGAGUGU [Fam2.1 aminoacylation ribozyme variant] | 14.2 | 29.9 | 5.14 | 5.27 | 13.6 | 11.7
CCACACUUCAAGCAAUCGUUC [Fam1B.1 aminoacylation ribozyme variant] | 0.57 | 1.31 | 0.714 | 0.845 | 0.579 | 0.675
CCACACUUCAAGCAAUCGGGG [Fam1B.1 aminoacylation ribozyme variant] | 1.21 | 1.38 | 1.71 | 2.19 | 2.28 | 2.3
CUACUUCAAACAAUCGGCUUG [Fam1A.1 aminoacylation ribozyme variant] | 1.1 | 2.59 | 1.27 | 1.35 | 1.21 | 2.53
AGUACCUUGGUCAUCGAGUGA [Fam2.1 aminoacylation ribozyme variant] | 6.27 | 19 | 4.3 | 4.07 | 6.37 | 8.17
CCACACUUCAAGCCAUAGGUC [Fam1B.1 aminoacylation ribozyme variant] | 0.622 | 0.805 | 0.812 | 0.688 | 0.632 | 0.633
CUACUUCAAAGAAUAGGUCUG [Fam1A.1 aminoacylation ribozyme variant] | 0.784 | 0.944 | 0.816 | 0.746 | 0.699 | 0.59
AUCUCCCUGGUCAUCGAGUGA [Fam2.1 aminoacylation ribozyme variant] | 9.05 | 27.2 | 4.57 | 4.7 | 9.06 | 10.2
AUUGCCCUGGUCAUCGACUGA [Fam2.1 aminoacylation ribozyme variant] | 0.941 | 1.08 | 0.899 | 0.951 | 0.735 | 1.35
AAAUUUCCUAAUAGUCGCAAG [Fam3.1 aminoacylation ribozyme variant] | 1.1 | 1.2 | 1.24 | 1.09 | 1.18 | 0.976
AUUACCCUGGUCAGCGAAUGA [Fam2.1 aminoacylation ribozyme variant] | 1.43 | 0.631 | 1.05 | 1.31 | 1.22 | 1.38
AUUCACCGAGGGCAUCGGGUG [Fam2.2 aminoacylation ribozyme variant] | 5.18 | 30.9 | 4.62 | 5.15 | 8.06 | 7.83
CUACUUCAAUCAAUCGGUGUG [Fam1A.1 aminoacylation ribozyme variant] | 1.19 | 7.44 | 1.18 | 1.27 | 1.83 | 4.96
AAGUUUGCUAAUGGUCGCCAG [Fam3.1 aminoacylation ribozyme variant] | 1.09 | 5.81 | 1.1 | 0.896 | 1.11 | 1.52
AUGACCCUGGUCAUCCAGUGA [Fam2.1 aminoacylation ribozyme variant] | 6.57 | 38.6 | 3.84 | 3.16 | 7.02 | 7.7
UUUACCCUGUUCAUCGAGUGA [Fam2.1 aminoacylation ribozyme variant] | 4.11 | 5.37 | 2.21 | 2.56 | 3.91 | 5.71
AUUCACCUAGGUCAUCGGGCC [Fam2.2 aminoacylation ribozyme variant] | 3.51 | 14.7 | 2.73 | 2.97 | 4.1 | 4.4

Sequence | self-aminoacylation (biotinyl-Met-oxazolone) | self-aminoacylation (biotinyl-Phe-oxazolone) | self-aminoacylation (biotinyl-Ile-oxazolone) | self-aminoacylation (biotinyl-Val-oxazolone) | self-aminoacylation (biotinyl-Leu-oxazolone) | self-aminoacylation (biotinyl-Trp-oxazolone)
ACGGUUGCUAAUAGUCGCAAG [Fam3.1 aminoacylation ribozyme variant] | 1.19 | 2.51 | 1.3 | 1.32 | 1.31 | 1.38
ACACACUUCAAGCAAUGGGUC [Fam1B.1 aminoacylation ribozyme variant] | 1.03 | 1.04 | 0.996 | 0.947 | 0.794 | 1.03
CUACUACAAACAAUAGGUCUG [Fam1A.1 aminoacylation ribozyme variant] | 0.635 | 0.827 | 0.826 | 0.94 | 0.718 | 0.456
AUUCACCCACGUCAUCGGGUG [Fam2.2 aminoacylation ribozyme variant] | 3.91 | 37.1 | 2.76 | 3.23 | 6.88 | 3.99
CCACGCUCCAAGCAAUCGGUC [Fam1B.1 aminoacylation ribozyme variant] | 1.07 | 12.6 | 1.13 | 1.47 | 1.11 | 9.91
AAAUUUGCUAAUAGGCGCAAG [Fam3.1 aminoacylation ribozyme variant] | 1.28 | 1.29 | 1.41 | 1.04 | 1.51 | 1.25
AUUCACCAAGGUCAGCGGGUG [Fam2.2 aminoacylation ribozyme variant] | 4.83 | 29.3 | 4.01 | 3.95 | 5.4 | 4.65
AUUAUCCUGGUCAUCGAGCGA [Fam2.1 aminoacylation ribozyme variant] | 1.59 | 1.01 | 1.77 | 1.41 | 1.83 | 1.46
AUUCGCCUAGGUCAUCGCGUG [Fam2.2 aminoacylation ribozyme variant] | 19.2 | 126 | 10 | 10.9 | 23.4 | 17.6
UUUACCCUUGUCAUCGAGUGA [Fam2.1 aminoacylation ribozyme variant] | 6.04 | 19.9 | 3.37 | 3.38 | 6.18 | 7.94
CCACACUUCCCGCAAUCGGUC [Fam1B.1 aminoacylation ribozyme variant] | 1.5 | 0.932 | 1.42 | 1.78 | 1.73 | 1.37
AAGUUUAGUAAUAGUCGCAAG [Fam3.1 aminoacylation ribozyme variant] | 1.75 | 3.24 | 1.85 | 1.55 | 1.71 | 1.23
AUAACCCUGGUCAGCGAGUGA [Fam2.1 aminoacylation ribozyme variant] | 4.66 | 25.1 | 3.52 | 2.92 | 5.25 | 6.19
UCGCACUUCAAGCAAUCGGUC [Fam1B.1 aminoacylation ribozyme variant] | 1.44 | 55.1 | 1.38 | 1.61 | 2.14 | 29.8
UAUACCCUGGUCAUCGAGUGA [Fam2.1 aminoacylation ribozyme variant] | 14.8 | 25.2 | 7.17 | 7.52 | 15.5 | 16
AUUCACCUAGGUUAUCGCGUG [Fam2.2 aminoacylation ribozyme variant] | 3.16 | 20.7 | 2.09 | 2.64 | 3.29 | 3.11
AAGUUUGCUAAUCGCCGCAAG [Fam3.1 aminoacylation ribozyme variant] | 1.56 | 2.82 | 1.97 | 1.47 | 1.54 | 4.38
AAAUUUGCGAAUAGUCGCAAG [Fam3.1 aminoacylation ribozyme variant] | 1.59 | 1.99 | 1.71 | 1.56 | 1.33 | 1.54
AUUACCCUGGUCAUUGAGUGC [Fam2.1 aminoacylation ribozyme variant] | 0.995 | 1.08 | 0.962 | 0.993 | 1.15 | 0.798
CCACACGCCAAGCAAUCGGUC [Fam1B.1 aminoacylation ribozyme variant] | 1.29 | 0.829 | 0.961 | 1.23 | 0.862 | 0.555
UUACUUCAAACAAUCGGCCUG [Fam1A.1 aminoacylation ribozyme variant] | 2.35 | 95.3 | 2.69 | 2.3 | 4.03 | 43.2
CUACUUCACACAAUCUGUCUG [Fam1A.1 aminoacylation ribozyme variant] | 0.558 | 0.903 | 0.655 | 0.699 | 0.573 | 0.513
GGACUUCAAACAAUCGGUCUG [Fam1A.1 aminoacylation ribozyme variant] | 2 | 122 | 2.34 | 1.88 | 2.75 | 47.1
AUUCACCUAGGUCCUCGGGUU [Fam2.2 aminoacylation ribozyme variant] | 2.22 | 8.53 | 1.8 | 2.06 | 2.45 | 2.48
AUUCACGUAGGUCAGCGGGUG [Fam2.2 aminoacylation ribozyme variant] | 2.52 | 16.1 | 2.48 | 2.48 | 3.04 | 2.71
